Experimental data published in US20230226096A1 (Orna Therapeutics, Inc., priority 2020, published 2023).
Substitutions are numbered along the chain they refer to.

B1: 18-675 (nucleic acid)
DNA: CCCACAGCAAGAATGCCATCATCTGTCCTCACCCCCAATTTTCCCTTTTCTTCCCCTGCAACCATTACGCTTACTCGCATGTGCATTGAGTGGTGCATGTGTTGAACAAACAGCTACACTCACATGGGGGCGGGTTTTCCCGCCCTACGGCCTCTCGCGAGGCCCACCCCTTCCCTCCCCTTATAACTACAGTGCTTTGGTAGGTAAGCATCCTGATCCCCCGCGGAAGCTGCTCACGTGGCAACTGTGGGGACCCAGACAGGTTATCAAAGGCACCCGGTCTTTCCGCCTTCAGGAGTATCCCTACTAGTGAATTCTAGCGGGGCTCTGCTTGGTGCCAACCTCCCCCAAATGCGCGCTGCGGGAGTGCTCTTCCCCAACTCACCCTAGTATCCTCTCATGTGTGTGCTTGGTCAGCATATCTGAGACGATGTTCCGCTGTCCCAGACCAGTCCAGTAATGGACGGGCCAGTGCGTGTAGTCGTCTTCCGGCTTGTCCGGGGCATGTTTGGTGAACCGGTGGGGTAAGGTTGGTGTGCCCAACGCCCGTACTTTGGTGACACCTCAAGACCACCCAGGAATGCCAGGGAGGTACCCCACCTCACGGTGGGATCTGACCCTGGGCTAATTGTCTACGGTGGTTCTTCTTGCTTCCACTTCTTTCTTCTGTTCACG
B2: A105-675 (nucleic acid)
DNA: CCACCCACAGCAAGAATGCCATCATCTGTCCTCACCCCCATTTCTCCCCTCCTTCCCCTGCAACCATTACGCTTACTCGCATGTGCATTGAGTGGTGCACGTGTTGAACAAACAGCTACACTCACGTGGGGGCGGGTTTTCCCGCCCTTCGGCCTCTCGCGAGGCCCACCCTTCCCCTTCCTCCCATAACTACAGTGCTTTGGTAGGTAAGCATCCTGATCCCCCGCGGAAGCTGCTCGCGTGGCAACTGTGGGGACCCAGACAGGTTATCAAAGGCACCCGGTCTTTCCGCCTCCAGGAGTATCCCTGCTAGTGAATTCTAGTGGGGCTCTGCTTGGTGCCAACCTCCCCCAAATGCGCGCTGCGGGAGTGCTCTTCCCCAACTCACCCTAGTATCCTCTCATGTGTGTGCTTGGTCAGCATATCTGAGACGATGTTCCGCTGTCCCAGACCAGTCCAGCAATGGACGGGCCAGTGTGCGTAGTCGTCTTCCGGCTTGTCCGGCGCATGTTTGGTGAACCGGTGGGGTAAGGTTGGTGTGCCCAACGCCCGTACTTTGGTGACAACTCAAGACCACCCAGGAATGCCAGGGAGGTACCCCGCCTCACGGCGGGATCTGACCCTGGGCTAATTGTCTACGGTGGTTCTTCTTGCTTCCATTTCTTTCTTCTGTTC
B3: A115-675 (nucleic acid)
DNA: ACCTTTGTGCGCCTGTTTTATACCCCCCCCAACCTCGAAACTTAGAAGTAAAGCAAACCCGATCAATAGCAGGTGCGGCGCACCAGTCGCATCTTGATCAAGCACTTCTGTAACCCCGGACCGAGTATCAATAGACTGCTCACGCGGTTGAAGGAGAAAACGTTCGTTACCCGGCTAACTACTTCGAGAAACCCAGTAGCATCATGAAAGTTGCAGAGTGTTTCGCTCAGCACTACCCCCGTGTAGATCAGGCCGATGAGTCACCGCACTTCCCCACGGGCGACCGTGGCGGTGGCTGCGTTGGCGGCCTGCCTATGGGGCAACCCATAGGACGCTCTAATACGGACATGGTGCGAAGAGTCTATTGAGCTAGTTAGTAGTCCTCCGGCCCCTGAATGCGGCTAATCCTAACTGCGGAGCACATACCCTTAATCCAAAGGGCAGTGTGTCGTAACGGGTAACTCTGCAGCGGAACCGACTACTTTGGGTGTCCGTGTTTCCTTTTAATTTTTACTGGCTGCTTATGGTGACAATTGAGGAATTGTTGCCATATAGCTATTGGATTGGCCATCCGGTGACTAACAGAGCTATTGTGTTCCAATTTGTTGGATTTACCCCGCTCACACTCACAGTCGTAAGAACCCTTCATTACGTGTTATTTCTCAACTCAAGAAA
B4: A73-675 (nucleic acid)
DNA: TTACTCCATTCAGCTTCTTCGGAACCTGTTCGGAGGAATTAAACGGGCACCCATACTCCCCCCACCCCCCTTTTGTAACTAAGTATGTGTGCTCGTGATCTTGACTCCCACGGAACGGACCGATCCGTTGGTGAACAAACAGCTAGGTCCACATCCTCCCTTCCCCTGGGAGGGCCCCCGCCCTCCCACATCCTCCCCCCAGCCTGACGTATCACAGGCTGTGTGAAGCCCCCGCGAAAGCTGCTCACGTGGCAATTGTGGGTCCCCCCTTCATCAAGACACCAGGTCTTTCCTCCTTAAGGCTAGCCCCGGCGTGTGAATTCACGTTGGGCAACTAGTGGTGTCACTGTGCGCTCCCAATCTCGGCCGCGGAGTGCTGTTCCCCAAGCCAAACCCCTGGCCCTTCACTATGTGCCTGGCAAGCATATCTGAGAAGGTGTTCCGCTGTGGCTGCCAACCTGGTGACAGGTGCCCCAGTGTGCGTAACCTTCTTCCGTCTCCGGACGGTAGTGATTGGTTAAGATTTGGTGTAAGGTTCATGTGCCAACGCCCTGTGCGGGATGAAACCTCTACTGCCCTAGGAATGCCAGGCAGGTACCCCACCTCCGGGTGGGATCTGAGCCTGGGCTAATTGTCTACGGGTAGTTTCATTTCCAATCCTTTTATGTCGGAGTC
B5: Tropivirus A (nucleic acid)
DNA: TGTCGCATGTTGCCAACATCAAAATTCTGGGAGAGTCGCGAACTCCTTAACACTGCCTTGCCTCGACGGAGCCGTTGTTATAGTGTCGACGGGATACAAACATTAAACTAAACCCACTTGCCTCGACGGAACCCCTTACCTTTTATTTTATTTTATAGTATGAAAGTGAATCTTGTATGAATGTTCATAGAAAACTGCAAATGAGTACCACGTCTAACATGAGAGAATGATACTGGAGAAATCCAAGTTTAGAAGTCACTACGAATCCCAGCGGAAACAAGGGAATTCTGAGCTTCTAATAGGCGTTTAAGACTATTTGCAAAATTCTGGTGCGTAAGTGATATTTTCATTGCGTAGAACGCTGGTAACCACTCCGGCTAGTATAAGCATTGTTAGTCACTTATTATGAAACTCCACACTATCCTTTCTGGAGAAGCACACAAACTTACATGGTAAAGCTAGACCATTATCTTAAGCGGTGAGTACACTGCAACCTTGTAACAATGCTTGTATGACTACTTTTTGTATATCTTGAGCAATATTGTTGAGGTGGACATGTCCAAAGGTAATGTTGTTGGGAATGGAGGGGTCCATTTTCCCGTGCACGTAGTGTACTAGTATTGGGTGATAGCCTTGCGGCGGATCAACCATGTATTTTAATCCGTTGACTTTCAC
modifications: Tropivirus A
B6: A110-675 (nucleic acid)
DNA: ACCTTTGTGCGCCTGTTTTATACCCCCTCCCCCAACTGTAACTTAGAAGTAACACACACCGATCAACAGTCAGCGTGGCACACCAGCCACGTTTTGATCAAGCACTTCTGTTACCCCGGACTGAGTATCAATAGACTGCTCACGCGGTTGAAGGAGAAAGCGTTCGTTATCCGGCCAACTACTTCGAAAAACCTAGTAACACCGTGGAAGTTGCAGAGTGTTTCGCTCAGCACTACCCCAGTGTAGATCAGGTCGATGAGTCACCGCATTCCCCACGGGCGACCGTGGCGGTGGCTGCGTTGGCGGCCTGCCCATGGGGAAACCCATGGGACGCTCTAATACAGACATGGTGCGAAGAGTCTATTGAGCTAGTTGGTAGTCCTCCGGCCCCTGAATGCGGCTAATCCTAACTGCGGAGCACACACCCTCAAGCCAGAGGGCAGTGTGTCGTAACGGGCAACTCTGCAGCGGAACCGACTACTTTGGGTGTCCGTGTTTCATTTTATTCCTATACTGGCTGCTTATGGTGACAATTGAGAGATCGTTACCATATAGCTATTGGATTGGCCATCCGGTGACTAATAGAGCTATTATATATCCCTTTGTTGGGTTTATACCACTTAGCTTGAAAGAGGTTAAAACATTACAATTCATTGTTAAGTTGAATACAGCAAA
B7: Kobuvirus 16317 (nucleic acid, listed as Kobuvirus sp.)
DNA: TTACTCCATTCAGCTTCTTCGGAACCTGTTCGGAGGAATTAAACGGGCACCCATACACCCCCATCCCCTTTCTGCAACTTAAGTATGTGTGCTCGTGATCTTGACTCCCACGGAATGGATCGATCCGCTGGAGAACAAACTGCTAGATCCACATCCTCCCTTCCCCTGGGAGGACCTTGGTCCTCCCACATCCTCCCCCCAGCCTGACGTACCACAGGCTGTGTGAAGCCCCCGCGAAAGCTGCTCACGTGGCAATTGTGGGTCCCCCCTTCATCAAGACACCAGGTCTTTCCTCCTTAAGGCTAGCCCCGATGTGTGAATTCACATTGGGCAACTAGTGGTGTCACTGTGCGCTCCCAATCTCGGCCGCGGAGTGCTGTTCCCCAAGCCAAACCCCTGGCCCTTCACTATGTGCCTGGCAAGCATACCTGAGAAGGTGTTCCGCTGTGGCTGCCAGCCTGGTAACAGGTGCCCCAGTGTGCGTAACCTTCTTCCGTCTTCGGACGGTAGTGATTGGTTAAGATTTGGTGTAAGGTCCATGTGCCAACGCCCTGTGCGGGATGAAACCTCTACTGCCCTAGGAATGCCAGGCAGGTACCCCACCCCCGGGTGGGATCTGAGCCTGGGCTAATTGTCTACGGGTAGTTTCATTTCCAATTCTTTTATGTCGGAGTC
B8: Aichivirus Chshc7 (nucleic acid, listed as Aichivirus sp.)
DNA: B7 DNA with C58T, C75T, C94T, G97A, C428T, T500C, C537T, C567T, C606T, T659C
B9: Posavirus 1 (nucleic acid)
DNA: ACATTTCCTTGCGTGCGCACCCGAAAATTTATTGAACTTGGCTTGAATCATAAGTAATGCTTCTTATAGCGGACACTTTGAGAATATAATGCTTGTATGGATTAATGTATACTGTTTTAAATAACAAACCTAGACACGCAGTTGCGTTGATGGTTGTATCAATCACATATAAGTGTTGAACTCGTGTTAATCCTCGATCGCTATATGTTTGCCGCCTACTTCCAATAAAATAGATTACATGCGCGTCATGCCTTTGTGGGTTACCTATTGGCCTCTGACAAAAACAAGTCGTAAGATTTGTAGCTTCCCGGTGTAAAAAGCTGGGCGCGGTCTGGCTCTCGTAGGGTGGAAAGGTCCACCAATGGCTGGTTGAGTGTAAGCTCCGGTGTCCTGGTTGTCGCAATTCCAGGCGTCGTAATAACCTATATTGCATCTGACTCTAACTCTTGTGGCTCTACTGTATCTAGTTCTTGTTCTACTAACTCTAATAATACTACTGGCTCTAATACTGAAAAACTTACATATGTTAATATAGATAATATCCTTGATCCTGATATCCCTCACGTCACTGAAGTTCGCCGAAAACGAATTTCAGATCATATCATTGAATCTCAAGGATGTACTTGCTCTGAACCTACTATAACTCCTCATGCGTTTTCATTTTCTACTCTTGGC

These molecules were tested on HEK293 cells. Conditions: luminescence from secreted Gluc in supernatant 24 hours after transfection of HEK293 cells; circular RNA encoding Gluc with the named IRES (UTR truncated to 675 nt).
Assay type: cell-based, human
B1 showed an Expression of 6.04E+07.
B2 was tested, and the Expression was 2.18E+07.
B3 showed an Expression of 5.93E+07.
In the case of B4, the Expression is reported as 1.30E+08.
B5 was tested, and the Expression was 9.52E+04.
Work on B6 yielded an Expression of 1.24E+08.
B7 gave an Expression of 2.03E+07.
Work on B8 yielded an Expression of 1.87E+07.
Molecule B9 has an Expression of 1.55E+06.
